Results taken from patent US20210145976A1.
Residue numbers refer to the chain shown, from its start.

B1: SEQ ID NO 119 (designed binder)
chain: MLPAPKNLVVSRVTEDSARLSWTAPDAAFDSFHIEYEETPQKGEAIFLRVPGSERSYDLTGLKPGTEYVVNIRGVKGGDLSSPLGALFTT
B2: SEQ ID NO 126 (designed binder)
chain: MLPAPKNLVVSRVTEDSARLSWTAPDAAFDSFSIDYLELGESGEAIVLTVPGSERSYDLTGLKPGTEYWVYIFGVKGGYPSAPLSAIFTT
B3: SEQ ID NO 158 (designed binder)
chain: B2 chain with S33I, G40D, E41D, S42Y, W69P, F73Y, Y79L, A82T
B4: SEQ ID NO 139 (designed binder)
chain: B2 chain with S33D, D35S, L37W, L39S, E41K, S42Y, R55S, W69L, Y71D, A82E
B5: SEQ ID NO 161 (designed binder)
chain: MLPAPKNLVVSRVTEDSARLSWTAPDAAFDSFTIRYWEELPTGEAIVLTVPGSERSYDLTGLKPGTEYTVEIFGVKGGYLSRPLSAISTT
B6: SEQ ID NO 125 (designed binder)
chain: MLPAPKNLVVSRVTEDSARLSWTAPDAAFDSFVIEYFEFVGEGEAIVLTVPGSERSYDLTGLKPGTEYDVGIYGVKGGSLSSPLSAIFTT
B7: SEQ ID NO 156 (designed binder)
chain: B6 chain with V33A, F39N, V40L, E42I, D69V, G71N, S79W
B8: SEQ ID NO 157 (designed binder)
chain: B6 chain with V33A, F37Y, F39Y, E42N, D69Q, S79Y, L80Y, S82R
B9: SEQ ID NO 40 (designed binder)
chain: B6 chain with F37W, F39Y, E42H, D69S, S82R
B10: SEQ ID NO 134 (designed binder)
chain: MLPAPKNLVVSRVTEDSARLSWTAPDAAFDSFWIDYYERKYVGEAIVLTVPGSERSYDLTGLKPGTEYEVTIYGVKGGWYSDPLSAIFTT
B11: SEQ ID NO 121 (designed binder)
chain: MLPAPKNLVVSRVTEDSARLSWTAPDAAFDSFSIDYPEFPVRGEAIVLTVPGSERSYDLTGPKPGTEYNVTIQGVKGGFPSMPLSAIFTT
B12: SEQ ID NO 140 (designed binder)
chain: B11 chain with S33W, D35S, P37E, F39S, P40D, V41T, R42E, V47Y, T49R, P62L
B13: SEQ ID NO 124 (designed binder)
chain: B11 chain with P62L, N69A, Q73W, P80T, M82Q
B14: SEQ ID NO 152 (designed binder)
chain: B11 chain with S33F, D35G, P37L, F39P, P40Q, V41P, R42P, P62L, M82S
B15: SEQ ID NO 153 (designed binder)
chain: MLPAPKNLVVSRVTEDSARLSWTAPDAALDSFRIAYTEYFVGGEAIVLTVPGSERSYDLTGLKPGTEYGVGIYGVKGGAGSSPLSAIFTT
B16: SEQ ID NO 142 (designed binder)
chain: MLPAPKNLVVSRVTKDSARLSWTAPDAAFDSFHIAYEEATTYGEAIFLRVPGSERSYDLTGLKPGTEYEVKIHGVKGGADSKPLVAPFTT
B17: SEQ ID NO 128 (designed binder)
chain: MLPAPKNLVVSRVTEDSARLSWTAPDAAFDSFIINYIEIVQYGEAIVLTVPGSERSYDLTGLKPGTEYPESIWGVKGGGASSPLSAIFTT
B18: SEQ ID NO 137 (designed binder)
chain: MLPAPKNLVVSRVTEDSARLSWTAPDAAFDSFEIEYDEPSVAGEAIVLTVPGSERSYDLTGLKPGTEYRVFIWGVKGGNQSWPLSAIFTT
B19: SEQ ID NO 38 (designed binder)
chain: MLPAPKNLVVSRVTEDSARLSWTAPDAAFDSFHIAYEESHTTGEAIFLRVPGSERSYDLTGLKPGTEYSVSIEGVKGGHYSPPLTAKFTT
B20: SEQ ID NO 122 (designed binder)
chain: MLPAPKNLVVSRVTEDSARLSWTAPDAAFDSFQIPYWEQSLGGEAIVLTVPGSERSYDLTGLKPGTEYEVWIEGVKGGDLSFPLSAISTT
B21: SEQ ID NO 144 (designed binder)
chain: MLPAPKNLVVSRVTEDSARLSWTAPDAAFDSFIIPYAEVRPDGEAIVLTVPGSERSYDLTGLKPGTEYSVLIHGVKGGKLSLPLSAIFTT
B22: SEQ ID NO 146 (designed binder)
chain: B21 chain with I33Y, P35A, V39P, K79L, L82S
B23: SEQ ID NO 150 (designed binder)
chain: B21 chain with I33P, P35A, V39P, R40S, D42T, K79H, L82D
B24: SEQ ID NO 151 (designed binder)
chain: B21 chain with I33F, V39P, R40S, D42T, S69G, L71V, H73L, K79Y, L80G, L82D
B25: SEQ ID NO 154 (designed binder)
chain: B21 chain with I33F, V39P, K79L, L82S
B26: SEQ ID NO 149 (designed binder)
chain: B21 chain with L82E
B27: SEQ ID NO 159 (designed binder)
chain: B21 chain with I33L, V39T, R40S, D42S, K79R, L80N, L82D
B28: SEQ ID NO 147 (designed binder)
chain: B21 chain with I33F, P35G, A37L, V39P, R40Q, D42P, K79R, L80N, L82D, F88S
B29: SEQ ID NO 120 (designed binder)
chain: MLPAPKNLVVSRVTEDSARLSWTAPDAAFDSFRIEYIEWWVGGEAIVLTVPGSERSYDLTGLKPGTEYWVDIKGVKGGKRSYPLSAIFTT
B30: SEQ ID NO 39 (designed binder)
chain: B29 chain with R33D, E35D, I37R, V41T, G42L, W69Y, D71N, K73Q, K79L
B31: SEQ ID NO 138 (designed binder)
chain: B29 chain with R33F, E35K, V41A, G42D, W69L, D71E, K73Y, K79R, R80Q
B32: SEQ ID NO 143 (designed binder)
chain: MLPAPKNLVVSRVTEDSARLSWTAPDAAFDSFHIAYEEADSEGEAIYLRVPGSERSYDLTGLKPGTEYSVNIQGVKGGIVSFPLHAEFTT
B33: SEQ ID NO 117 (designed binder)
chain: MLPAPKNLVVSRVTEDSARLSWTAPDAAFDSFTIPYGEAFNPGEAIVLTVPGSERSYDLTGLKPGTEYDVFIEGVKGGTLSWPLSAIFTT
B34: SEQ ID NO 42 (designed binder)
chain: B10 chain with W33T, D35E, R39S, K40F, V42G, E69Y, T71S, Y80L, D82R
B35: SEQ ID NO 133 (designed binder)
chain: B33 chain with T33P, P35V, F40W, N41V, P42T, F71W, T79E
B36: SEQ ID NO 160 (designed binder)
chain: B33 chain with T33N, P35A, A39W, F40R, N41Q, P42H, E73D, T79N
B37: SEQ ID NO 132 (designed binder)
chain: B33 chain with P35V, G37A, A39V, F40T, N41Y, P42D, T79E
B38: SEQ ID NO 145 (designed binder)
chain: B33 chain with T33F, G37A, A39P, F40S, N41P, P42T, F71W
B39: SEQ ID NO 141 (designed binder)
chain: B6 chain with F39Q, V40F, G41N, E42L, D69L, S79W, S82H
B40: SEQ ID NO 118 (designed binder)
chain: B33 chain with T33R, P35L, A39V, F40D, N41P, P42W, F71W, T79K
B41: SEQ ID NO 127 (designed binder)
chain: MLPAPKNLVVSRVTEDSARLSWTAPDAAFDSFPIPYGESPPSGEAIVLTVPGSERSYDLTGLKPGTEYVVIIRGVKGGGRSGPLSAISTT
B42: SEQ ID NO 130 (designed binder)
chain: MLPAPKNLVVSRVTEDSARLSWTAPDAAFDSFHIPYVEAEVPGEAIQLHVPGSERSYDLTGLKPGTEYYVEIWGVKGGFYSPPLIAEFTT
B43: SEQ ID NO 155 (designed binder)
chain: MLPAPKNLVVSRVTEDSARLSWTAPDAAFDSFPITYRERSQYGEAIVLTVPGSERSYDLTGLKPGTEYVVPIEGVKGGRGSKPLSAIFTT
B44: SEQ ID NO 136 (designed binder)
chain: MLPAPKNLVVSRVTEDSARLSWTAPDAAFDSFFIYYIESYPAGEAIVLTVPGSERSYDLTGLKPGTEYWMGIDGVKGGRWSTPLSAIFTT
B45: SEQ ID NO 41 (designed binder)
chain: B44 chain with V10I, M70V

The binders below were run against human serum albumin (human) (UniProt P02768) (assay: screening ELISA).
human serum albumin (human), sequence (P02768 25-609 limits assumed): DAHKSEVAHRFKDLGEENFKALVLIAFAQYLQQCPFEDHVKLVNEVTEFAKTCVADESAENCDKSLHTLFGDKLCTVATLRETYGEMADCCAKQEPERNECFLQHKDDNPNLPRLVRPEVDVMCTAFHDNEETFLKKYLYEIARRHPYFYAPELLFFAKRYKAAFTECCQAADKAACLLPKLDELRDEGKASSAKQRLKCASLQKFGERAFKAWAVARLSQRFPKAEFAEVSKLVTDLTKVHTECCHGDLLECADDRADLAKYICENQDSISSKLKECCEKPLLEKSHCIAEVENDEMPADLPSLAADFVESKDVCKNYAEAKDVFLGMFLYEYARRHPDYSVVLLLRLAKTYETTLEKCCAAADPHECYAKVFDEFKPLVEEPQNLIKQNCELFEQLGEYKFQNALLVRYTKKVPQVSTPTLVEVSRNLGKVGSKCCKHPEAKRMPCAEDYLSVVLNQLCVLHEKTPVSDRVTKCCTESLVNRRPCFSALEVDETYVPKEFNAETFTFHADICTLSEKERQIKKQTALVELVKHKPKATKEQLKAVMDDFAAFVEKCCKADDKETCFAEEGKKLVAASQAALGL

| Binder | HSA |
| --- | --- |
| B1 | 1850 |
| B2 | 1750 |
| B3 | 1350 |
| B4 | 2100 |
| B5 | 5050 |
| B6 | 1050 |
| B7 | 5000 |
| B8 | 2450 |
| B9 | 2960 |
| B10 | 1950 |
| B11 | 28600 |
| B12 | 1600 |
| B13 | 3450 |
| B14 | 5300 |
| B15 | 13100 |
| B16 | 3400 |
| B17 | 3250 |
| B18 | 2050 |
| B19 | 4160 |
| B20 | 29600 |
| B21 | 2750 |
| B22 | 3800 |
| B23 | 3500 |

| Binder | HSA |
| --- | --- |
| B24 | 55000 |
| B25 | 4150 |
| B26 | 3350 |
| B27 | 1950 |
| B28 | 71200 |
| B29 | 1850 |
| B30 | 4160 |
| B31 | 3500 |
| B32 | 9250 |
| B33 | 23500 |
| B34 | 5920 |
| B35 | 5000 |
| B36 | 3300 |
| B37 | 2350 |
| B38 | 48400 |
| B39 | 3150 |
| B40 | 18800 |
| B41 | 93300 |
| B42 | 6050 |
| B43 | 26000 |
| B44 | 5700 |
| B45 | 10100 |
